Assay in all cases: two-hybrid library CCmax;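 also: natural log of median RNA to DNA barcode read ratio; higher means stronger binding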
For assay [1], the target named is T1, 4H1351-AA.
T1 chain: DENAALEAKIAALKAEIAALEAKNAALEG
The conditions noted are these: mean of both orientations.

Assay [2] addresses T2, 4H1401-AA.
T2 chain: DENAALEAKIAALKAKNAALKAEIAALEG
The following applies: mean of both orientations.

The target in assay [3] is T3, 4H1579-AA.
T3 chain: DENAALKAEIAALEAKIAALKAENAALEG
The conditions noted are these: mean of both orientations.

Assay [4] deals with T4, 4H1594-AA.
T4 chain: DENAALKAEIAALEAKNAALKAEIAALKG
The following applies: mean of both orientations.

In assay [5] the target is T5, 4H174-AA.
T5 chain: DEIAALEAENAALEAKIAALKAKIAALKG
The conditions noted are these: mean of both orientations.

Assay [6] has as its target T6, 4H1877-AA.
T6 chain: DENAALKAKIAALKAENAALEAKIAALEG
The following applies: mean of both orientations.

For assay [7], the target named is T7, 4H2198-AA.
T7 chain: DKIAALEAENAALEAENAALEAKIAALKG
The following applies: mean of both orientations.

The target in assay [8] is T8, 4H2620-AA.
T8 chain: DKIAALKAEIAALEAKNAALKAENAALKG
The conditions noted are these: mean of both orientations.

The target in assay [9] is T9, 4H2865-AA.
T9 chain: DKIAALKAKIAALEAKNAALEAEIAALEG
The conditions noted are these: mean of both orientations.

Assay [10] has as its target T10, 4H2907-AA.
T10 chain: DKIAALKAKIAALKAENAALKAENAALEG
The conditions noted are these: mean of both orientations.

Assay [11] concerns the target T11, 4H3165-AA.
T11 chain: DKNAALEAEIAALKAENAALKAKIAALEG

Assay [12] has as its target T12, 4H3631-AA.
T12 chain: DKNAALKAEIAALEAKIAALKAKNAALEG

The target of assay [13] is T13, 4H485-AA.
T13 chain: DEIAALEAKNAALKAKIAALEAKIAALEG
The conditions noted are these: mean of both orientations.

In assay [14] the target is T14, 4H629-AA.
T14 chain: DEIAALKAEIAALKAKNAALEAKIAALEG
The following applies: mean of both orientations.

Assay [15] concerns the target T15, 4H745-AA.
T15 chain: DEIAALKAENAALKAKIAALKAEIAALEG
The following applies: mean of both orientations.

Assay [16] deals with T16, 4H850-AA.
T16 chain: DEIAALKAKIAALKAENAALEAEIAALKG
The following applies: mean of both orientations.

Assay [17] has as its target T17, 4H2165-AA.
T17 chain: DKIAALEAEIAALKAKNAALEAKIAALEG
The following applies: mean of both orientations.

Assay [18] deals with T18, 4H2190-AA.
T18 chain: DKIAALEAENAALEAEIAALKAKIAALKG
The conditions noted are these: mean of both orientations.

For assay [19], the target named is T19, 4H2393-AA.
T19 chain: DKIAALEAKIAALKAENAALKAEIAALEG
The conditions noted are these: mean of both orientations.

Assay [20] concerns the target T20, 4H2466-AA.
T20 chain: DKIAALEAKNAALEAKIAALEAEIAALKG
The conditions noted are these: mean of both orientations.

For assay [21], the target named is T21, 4H2837-AA.
T21 chain: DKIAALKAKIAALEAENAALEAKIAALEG
The conditions noted are these: mean of both orientations.

The target of assay [22] is T22, 4H2944-AA.
T22 chain: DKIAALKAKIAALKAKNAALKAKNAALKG
The conditions noted are these: mean of both orientations.

In assay [23] the target is T23, 4H342-AA.
T23 chain: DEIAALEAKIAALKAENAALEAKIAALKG
The following applies: mean of both orientations.

Assay [24] addresses T24, 4H3627-AA.
T24 chain: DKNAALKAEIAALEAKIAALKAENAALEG
The following applies: mean of both orientations.

Assay [25] concerns the target T25, 4H429-AA.
T25 chain: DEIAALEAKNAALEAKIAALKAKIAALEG
The following applies: mean of both orientations.

In assay [26] the target is T26, 4H454-AA.
T26 chain: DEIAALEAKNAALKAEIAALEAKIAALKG
The following applies: mean of both orientations.

In assay [27] the target is T27, 4H48-AA.
T27 chain: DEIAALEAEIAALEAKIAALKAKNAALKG
The conditions noted are these: mean of both orientations.

Assay [28] has as its target T28, 4H605-AA.
T28 chain: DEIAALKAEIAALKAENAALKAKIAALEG
The conditions noted are these: mean of both orientations.

The target of assay [29] is T29, O11-AA.
T29 chain: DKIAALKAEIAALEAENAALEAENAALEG
The following applies: mean of both orientations.

Assay [30] concerns the target T30, O13-AA.
T30 chain: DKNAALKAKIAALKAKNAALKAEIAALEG
The conditions noted are these: mean of both orientations.

In assay [31] the target is T31, O14-AA.
T31 chain: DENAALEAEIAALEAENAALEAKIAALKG
The conditions noted are these: mean of both orientations.

Like-named read-outs stand apart in the source and are kept apart here.

B1: 4H1310-AA (peptide)
chain: DENAALEAKIAALEAENAALKAKIAALKG
As for B1, the interaction score is -1.27 in assay [1]; 1.11 in assay [2]; -1.2 in assay [3]; 1.18 in [4]; 0.83 in assay [5]; 1.5 in assay [6]. The interaction score in [7] is -0.878; in [8], -1.03; in [9], 1.76; in [10], 1.34; in assay [11] (mean of both orientations), 0.0119; in assay [12] (mean of both orientations) it was -1.57. Moreover, the interaction score in assay [13] was -1.08; in assay [14], -1.49; in assay [15], -1.11; in [16], 1.87.

B2: 4H1153-AA (peptide)
chain: DENAALEAENAALEAEIAALEAEIAALEG
For B2, the interaction score in [1] is -1.51; in assay [2], -0.873; in [4] it was -1.13; in assay [17], -1.33; in [18], -0.187; in [7] it was -1.56. Besides, the interaction score in assay [19] was -1.3; in assay [20] it was -1.53; in assay [8], -1.41; in assay [21] it was -1.49; in assay [10], -1.67; in assay [22], -0.0983. The interaction score in assay [23] is -1.39; in [24] it was -0.179; in assay [12] (mean of both orientations), 0.849; in assay [25], 0.137; in assay [26], 0.894; in assay [27] it was -1.38. In assay [28], the interaction score is -1.75.

B3: 4H1142-AA (peptide)
chain: DENAALEAEIAALKAKNAALEAKIAALKG
For B3, the interaction score in assay [1] was -1.31; in assay [2], 0.545; in [3], -1.39; in assay [4] it was 0.842; in assay [5] it was -0.4; in assay [6], 1.48. Further, the interaction score in assay [7] is -1.52; in assay [8], -1.34; in assay [9] it was 1.33; in [10], -1.24; in assay [11] (mean of both orientations), -0.754; in assay [12], -1.43. Also, the interaction score is -0.612 in [13], 0.124 in assay [14], -1.19 in assay [15] and 0.681 in [16].

B4: 4H1385-AA (peptide)
chain: DENAALEAKIAALKAKIAALKAEIAALEG
In the case of B4, the interaction score in assay [3] was -0.0818; in assay [5], 0.819; in assay [6] it was -0.357; in assay [9], -0.751; in assay [11], -1.48; in assay [13], -0.799. The interaction score is -1.12 in assay [14]; -1.3 in assay [15]; -0.784 in assay [16]; 0.214 in assay [29]; -1.62 in assay [30]; 2.08 in assay [31].

(Values after PMC10397247.)
